From patent US20210301025A1 (published 2021)

B1: P114AR5P74-A5 (designed binder, not shown: small tags and cut ends)
chain: LPAPKNLVVSRVTEDSARLSWTAPDAAFDSFWIRYDEVVVGGEAIVLTVPGSERSYDLTGLKPGTEYYVNILGVKGGSISVPLSAIFTT
B2: P53A1R5-17v2 (designed binder)
chain: LPAPKNLVVSEVTEDSARLSWADPHGFYDSFLIQYQESEKVGEAIVLTVPGSERSYDLTGLKPGTEYTVSIYGVHNVYKDTNMRGLPLSAIFTT

What was measured:
[1] = molecular target: T1, human c-Met on cells (NCI-H441, NCI-H292, U87-MG) (human, UniProt P08581 25-1390); assay: cell-based or functional assay
[2] = molecular target: T1, human c-Met on cells (NCI-H441, …); assay: cell-based or functional assay; remark: listed apart in the source
[3] = molecular target: T2, recombinant c-Met extracellular domain (human, UniProt P08581 16-932); assay: SPR kinetic analysis as in Example 2
T2 construct: Construct used for SPR is not described further (may be the Fc chimera, as the protocol captures on anti-human Fc)

[4] = molecular target: T1, human c-Met on cells (NCI-H441, …); assay: NCI-H441 cell binding, anti-His fluorescence
Protocol: Purified FN3 domains (50 μL/well; 0 to 1000 nM) were added to the cells for 1 hour at 4° C. in duplicate plates. Supernatant was removed and cells were washed three times with FACS stain buffer (150 μL/well, BD Biosciences, cat #554657). Cells were incubated with biotinylated-anti HIS antibody (diluted 1:160 in FACS stain buffer, 50 μL/well, R&D Systems, cat # BAM050) for 30 minutes at 4° C. Cells were washed three times with FACS stain buffer (150 μL/well), after which wells were incubated with anti mouse IgG1-Alexa 488 conjugated antibody (diluted 1:80 in FACS stain buffer, 50 μL/well, Life Technologies, cat # A21121) for 30 minutes at 4° C. Cells were washed three times with FACS stain buffer (150 μL/well) and left in FACS stain buffer (50 μL/well). Total fluorescence was determined using an Acumen eX3 reader. Data were plotted as raw fluorescence signal against the logarithm of the FN3 domain molar concentration and fitted to a sigmoidal dose-response curve with variable slope using GraphPad Prism 4 (GraphPad Software) to calculate EC₅₀ values.

[5] = molecular target: T3, Recombinant human c-Met Fc chimera (human, UniProt P08581 16-932); assay: competition with biotinylated HGF on plate-coated c-Met-Fc
T3 construct: whole c-Met entry named; also called c-Met-Fc fusion protein

[6] = molecular target: EGFR (form used in the assay not stated) (human, UniProt P00533 25-645, limits assumed); assay: affinity quoted in text, assay not stated

Binder	IC50 of inhibition of c-Met phosphorylation, NCI-H292 cells [1] [µM]	Inhibition of proliferation of U87-MG cells IC50 [2] [µM]	pMet inhibition in H441 cells IC50 [2] [nM]	Kd [3] [µM]	EC50 [4] [µM]	IC50 [5] [µM]	Kd [6] [µM]
B1	0.61	0.464	1080	0.0101	0.0187	0.0052	
B2							0.0019
